*1 amine or outer side, *2 acyl side, *3 side chain or, on linkers, in order; H or OH if unused. Primed or numbered codes have the meaning given here. [ ]: non-standard residue; d: D form. The star is where a group is joined. Tyr(OMe)(3) = Tyr, methoxy (Y(OMe)), COc1ccc(C[C@H](N[*:1])C(=O)[*:2])cc1; WPEG40K = not defined here; Orn = NCCC[C@H](N)C(=O)O; Abu = CC[C@H](N)C(=O)O; Hexanoyl = CCCCCC(=O)*; Aib = CC(C)(N)C(=O)O
Assays:
[1] = Rat serum stability study (DiscoveRx cAMP read-out on CHO-VPAC2 cells); conditions: EC50, 4° C./EC50, 37° C., values >100% may represent release of intact peptide from the PEG conjugate; for 24 h stab (%): 24 h in rat serum at 37° C.
Protocol: In order to determine the stability of VPAC2 receptor peptide agonists in rat serum, CHO-VPAC2 cells clone #6 (96 well plates/50,000 cells/well and 1 day culture), PBS 1× (Gibco), the peptides for the analysis in a 100 μM stock solution, rat serum from a sacrificed normal Wistar rat, aprotinin, and a DiscoveRx assay kit are obtained. The rat serum is stored at 4° C. until use and is used within two weeks.
The aliquot is stored with aprotinin at 4° C. The aliquot is stored without aprotinin at 37° C. The aliquots are incubated for 24 or 72 hours.
On Day 1, after incubation of the aliquots prepared on day 0 for 24 or 72 hours, an incubation buffer containing PBS+1.3 mM CaCl2, 1.2 mM MgCl2, 2 mM glucose, and 0.25 mM IBMX is prepared. A plate with 11 serial 5× dilutions of peptide for the 4° C. and 37° C. aliquot is prepared for each peptide studied. […] The plate(s) are washed with cells twice in incubation buffer. The plates are allowed to hold 50 μL incubation media per well for 15 minutes. 50 μL solution per well is transferred to the cells from the plate prepared with 11 serial 5× dilutions of peptide for the 4° C. and 37° C. aliquot for each peptide studied, using the maximal concentrations that are indicated by the primary screen, in duplicate. This step dilutes the peptide concentration by a factor of two. The cells are incubated at room temperature for 30 minutes. The supernatant is removed. 40 μL/well of the DiscoveRx antibody/extraction buffer is added. The cells are incubated on the shaker (300 rpm) for 1 hour. Normal procedure with the DiscoveRx kit is followed. cAMP standards are included in column 12. EC50 values are determined from the cAMP assay data.

Human VPAC1 Receptor = biological target: T1, Human VPAC1 Receptor (Homo sapiens, UniProt P32241); assay: Filter binding assay, 125I-labeled VIP, membranes of cells transiently transfected with human VPAC1; conditions: 125I-labeled VIP tracer
T1 construct: expressed in transfected cells
T1 sequence (P32241 31-457): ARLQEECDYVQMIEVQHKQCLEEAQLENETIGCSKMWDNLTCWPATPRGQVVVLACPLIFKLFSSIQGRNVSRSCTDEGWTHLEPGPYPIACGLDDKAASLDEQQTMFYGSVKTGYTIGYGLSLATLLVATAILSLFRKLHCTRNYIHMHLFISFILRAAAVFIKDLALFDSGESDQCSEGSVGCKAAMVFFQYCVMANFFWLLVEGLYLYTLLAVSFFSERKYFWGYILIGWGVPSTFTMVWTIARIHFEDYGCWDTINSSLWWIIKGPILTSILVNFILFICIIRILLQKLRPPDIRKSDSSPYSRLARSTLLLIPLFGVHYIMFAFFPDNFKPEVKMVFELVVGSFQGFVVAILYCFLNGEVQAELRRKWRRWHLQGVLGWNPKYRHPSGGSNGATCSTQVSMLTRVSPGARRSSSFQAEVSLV
Protocol: For this assay, the solutions and equipment include:
Presoak solution: 0.5% Polyethyleneamine in Aqua dest
Buffer for flushing filter plates: 25 mM HEPES pH 7.4
Blocking buffer: 25 mM HEPES pH 7.4; 0.2% protease free BSA
Assay buffer: 25 mM HEPES pH 7.4; 0.5% protease free BSA
Dilution and assay plate: PS-Microplate, U form
Filtration Plate Multiscreen FB Opaque Plate; […] Type B Glasfiber filter
In order to prepare the filter plates, the presoak solution is aspirated by vacuum filtration. The plates are flushed twice with 200 μL flush buffer. 200 μL blocking buffer is added to the filter plate. The filter plate is then incubated with 200 μL presoak solution for 1 hour at room temperature.
The assay plate is filled with 25 μL assay buffer, 25 μL membranes (2.5 μg) suspended in assay buffer, 25 μL agonist in assay buffer, and 25 μL tracer (about 40000 cpm) in assay buffer. The filled plate is incubated for 1 hour with shaking.
The transfer from assay plate to filter plate is conducted. The blocking buffer is aspirated by vacuum filtration and washed two times with flush buffer. 90 μL is transferred from the assay plate to the filter plate. The 90 μL transferred from assay plate is aspirated and washed three times with 200 μL flush buffer. The plastic support is removed. It is dried for 1 hour at 60° C. 30 μL Microscint is added. The count is performed.

[2] = Pharmacokinetic profiles of PEGylated peptides in Fisher 344 rats; type: in vivo, rat; conditions: 100 μg agonist/kg, plasma RIA, mean N = 3
Protocol: Pharmacokinetic profiles of PEGylated peptides. Healthy Fisher 344 rats (3 animals per group) were injected with 100 μg agonist/kg (agonist amount based on peptide content and dissolved in PBS buffer). Blood samples were drawn 3, 12, 24, 48, 72, 96 and 168 hour post dosing and the peptide content in plasma was analysed by a radio-immunoassay (RIA) directed against the N-terminus of the peptide. PK parameters were then calculated using a model-independent method (WinNonlin Pro, Pharsight Corp., Mountain View, Calif., USA).

Row | Substance | 24 h stab (%) [1] [%] | IC50 (Human VPAC1 Receptor) [nM] | also measured
1 | C6-HSDAVFTEQY(OMe)TOrnLRAibQLAAAibOrnYLQSIOrnOrnC(PEG40K)GGPSSGAPPPS-NH2 (HSDAVFTEQYTXLRXQLAAXXYLQSIXXCGGPSSGAPPPS; C6 acyl, PEG40K on Cys, C-terminal amide; Synthetic sequence PEGylated VPAC2 receptor agonist) [Agonist P560] | 192 | – | –
2 | C6-HSDAVFTEQY(OMe)TOrnLRAibQLAAbuAibOrnYLQAibC(PEG40K)OrnOrnGGPSSGAPPPS-NH2 (HSDAVFTEQYTXLRXQLAXXXYLQXCXXGGPSSGAPPPS; C6 acyl, PEG40K on Cys, C-terminal amide; Synthetic sequence PEGylated VPAC2 receptor agonist) [Agonist P541] | – | > 25000 | –
3 | C6-HSDAVFTEQY(OMe)TOrnLRAibQLAAbuAibOrnYLQAibIOrnOrnGGPSSGAPPPC(PEG20K)C(PEG20K)-NH2 (HSDAVFTEQYTXLRXQLAXXXYLQXIXXGGPSSGAPPPCC; C6 acyl, two PEG20K, C-terminal amide; Synthetic sequence PEGylated VPAC2 receptor agonist) [Agonist P517] | – | > 25000 | –
4 | C6-HSDAVFTEQY(OMe)TOrnLRAibQLAAbuAibOrnYLQSC(PEG40K)OrnOrnGGPSSGAPPPS-NH2 (HSDAVFTEQYTXLRXQLAXXXYLQSCXXGGPSSGAPPPS; C6 acyl, PEG40K on Cys, C-terminal amide; Synthetic sequence PEGylated VPAC2 receptor agonist) [Agonist P543] | 119 | – | –
5 | C6-HSDAVFTEQY(OMe)TOrnLRAibQLAAbuAibOrnYLQSIOrnOrnC(PEG4OK)GGPSSGAPPPS-NH2 (HSDAVFTEQYTXLRXQLAXXXYLQSIXXCGGPSSGAPPPS; C6 acyl, PEG40K on Cys, C-terminal amide; Synthetic sequence PEGylated VPAC2 receptor agonist) [Agonist P566] | 152 | – | –
6 | C6-HSDAVFTEQY(OMe)TOrnLRAibQLAAbuAibOrnYLQSIOrnOrnGGPSSGAPPPC(PEG20K)C(PEG20K)-NH2 (HSDAVFTEQYTXLRXQLAXXXYLQSIXXGGPSSGAPPPCC; C6 acyl, two PEG20K, C-terminal amide; Synthetic sequence PEGylated VPAC2 receptor agonist) [Agonist P523] | – | – | 72 h stab (%) ([1]; 72 h in rat serum at 37° C.): 281%
7 | C6-HSDAVFTEQY(OMe)TOrnLRAibQVAAAibC(PEG40K)YLQSIOrnOrnGGPSSGAPPPS-NH2 (HSDAVFTEQYTXLRXQVAAXCYLQSIXXGGPSSGAPPPS; C6 acyl; PEG40K; non-natural residues; amide; Synthetic sequence PEGylated VPAC2 receptor peptide agonist) [Agonist P460] | – | > 25000 | –
8 | C6-HSDAVFTEQY(OMe)TOrnLRAibQVAAAibK(W-PEG40K)YLQSIOrnOrnGGPSSGAPPPS-NH2 (HSDAVFTEQYTXLRXQVAAXXYLQSIXXGGPSSGAPPPS; C6 acyl; PEG40K; non-natural residues; amide; Synthetic sequence PEGylated VPAC2 receptor peptide agonist) [Agonist P410] | – | > 25000 | –
9 | C6-HSDAVFTEQY(OMe)TOrnLRAibQVAAAibOrnYLQAibIOrnOrnGGPSSGAPPPC(PEG40K)-NH2 (HSDAVFTEQYTXLRXQVAAXXYLQXIXXGGPSSGAPPPC; C6 acyl, PEG40K on Cys, C-terminal amide; Synthetic sequence PEGylated VPAC2 receptor agonist) [Agonist P509] | – | > 25000 | –
10 | C6-HSDAVFTEQY(OMe)TOrnLRAibQVAAAibOrnYLQSC(PEG20K)OrnOrnGGPSSGAPPPC(PEG20K)-NH2 (HSDAVFTEQYTXLRXQVAAXXYLQSCXXGGPSSGAPPPC; C6 acyl, two PEG20K, C-terminal amide; Synthetic sequence PEGylated VPAC2 receptor agonist) [Agonist P503] | 174 | – | –
11 | C6-HSDAVFTEQY(OMe)TOrnLRAibQVAAAibOrnYLQSIOrnK(CO(CH2)2SPEG20K)OrnGGPSSGAPPPC(PEG20K)-NH2 (HSDAVFTEQYTXLRXQVAAXXYLQSIXXXGGPSSGAPPPC; C6 acyl, two PEG20K, C-terminal amide; Synthetic sequence PEGylated VPAC2 receptor agonist) [Agonist P499] | – | > 25000 | AUC0-last [2]: 6650 ng·h/mL; Cl/F [2]: 0.25 mL/min/kg; Cmax [2]: 132 ng/mL; Tmax [2]: 24 h; T½ [2]: 25 h
12 | C6-HSDAVFTEQY(OMe)TOrnLRAibQVAAAibOrnYLQSIOrnK(WPEG40K)OrnGGPSSGAPPPS-NH2 (HSDAVFTEQYTXLRXQVAAXXYLQSIXXXGGPSSGAPPPS; C6 acyl; PEG40K; non-natural residues; amide; Synthetic sequence PEGylated VPAC2 receptor peptide agonist) [Agonist P454] | – | > 25000 | –
13 | C6-HSDAVFTEQY(OMe)TOrnLRAibQVAAAibOrnYLQSK(WPEG40K)OrnOrnGGPSSGAPPPS-NH2 (HSDAVFTEQYTXLRXQVAAXXYLQSXXXGGPSSGAPPPS; C6 acyl, PEG40K on Lys, C-terminal amide; Synthetic sequence PEGylated VPAC2 receptor agonist) [Agonist P535] | – | > 25000 | –
14 | C6-HSDAVFTEQY(OMe)TOrnLRAibQVAAK(CO(CH2)2SPEG40K)OrnYLQSIOrnOrnGGPSSGAPPPS-NH2 (HSDAVFTEQYTXLRXQVAAXXYLQSIXXGGPSSGAPPPS; N-terminal C6 acyl, PEG40K on Lys, C-terminal amide; Synthetic sequence PEGylated VPAC2 receptor agonist) [Agonist P475] | 61 | – | –
15 | C6-HSDAVFTEQY(OMe)TOrnLRAibQVAK(CO(CH2)2SPEG20K)AibOrnYLQSIOrnOrnGGPSSGAPPPC(PEG20K)-NH2 (HSDAVFTEQYTXLRXQVAXXXYLQSIXXGGPSSGAPPPC; C6 acyl, two PEG20K, C-terminal amide; Synthetic sequence PEGylated VPAC2 receptor agonist) [Agonist P492] | 131 | – | –
16 | C6-HSDAVFTEQY(OMe)TOrnLRAibQVC(PEG40K)AAibOrnyLQSIOrnOrnGGPSSGAPPPS-NH2 [Agonist P478] | 34 | – | –
17 | C6-HSDAVFTEQY(OMe)TOrnLRK(CO(CH2)2SPEG40K)QVAAAibOrnYLQSIOrnOrnGGPSSGAPPPS-NH2 (HSDAVFTEQYTXLRXQVAAXXYLQSIXXGGPSSGAPPPS; N-terminal C6 acyl, PEG40K on Lys, C-terminal amide; Synthetic sequence PEGylated VPAC2 receptor agonist) [Agonist P485] | 65 | – | –
18 | C6-HSDAVFTEQY(OMe)TOrnLRK(WPEG40K)QLAAbuAibOrnYLQAibIOrnOrnGGPSSGAPPPS-NH2 (Hexanoyl-HSDAVFTEQ[Tyr(OMe)(3)]T[Orn]LRK(WPEG40K)QLA[Abu][Aib][Orn]YLQ[Aib]I[Orn][Orn]GGPSSGAPPPS-NH2; reading uncertain) [Agonist P557] | 131 | – | –

— patent US7897573B2, “Selective VPAC2 receptor peptide agonists” (priority 2005, dated 2011)
